Measured values taken from US20050271676A1, “Inducing cellular immune responses to human immunodeficiency virus-1 using peptide and nucleic acid compositions” (Epimmune Inc., priority 1993, published 2005).

Tests used:
[1] = molecular target: T1, HLA-B*0702 (Homo sapiens, UniProt P01889); assay: purified HLA class I binding assay, B*0702; details: for B*0702 (binding information): HIV B07 supermotif peptides, binding value for purified HLA-B*0702, unit not given; for B*0702 binding (HIV B07 Super Motif Peptides with Binding Information): purified HLA-B*0702, binding value without unit
T1 construct: endogenous in cells; host or cells: GM3107

[2] = molecular target: HLA-A*1101 (Homo sapiens, UniProt P04439, A114D/D185E/E176A/F33Y/L180Q/S129P/T187R); assay: purified HLA class I binding assay, A*1101; details: for A*1101 (HIV A11 Motif Peptides with Binding Information): binding value to purified HLA-A*1101 in Table XVII
[3] = molecular target: T2, HLA-DRB1*0701 (DR7) (Homo sapiens, UniProt P01903+P01911, A100R/A102G/A103Q/D57E/D86V/E43K/F76Y/K127E/L162R/M171V/P40G/Q125H/Q99D/R33Q/R42Y/R54Q/S133A/S66F/T210M/V115G/Y107V/Y59L/Y89S); assay: biochemical; format: binding
T2 construct: endogenous in cells; host or cells: Pitout

[4] = molecular target: T3, HLA-A*0301 (Homo sapiens, UniProt P04439); assay: purified HLA class I binding assay, A*0301; details: for A0301 (binding information, HIV A03 motif peptides) / A0301 (binding information): Table XVI; for A0301 (binding information): HIV A03 motif peptides; for A0301 (HIV A03 Motif Peptides with Binding Information): HIV POL-derived A03 motif peptides, binding value for purified HLA-A*0301, unit not given; for A*0301 binding information: HIV A03 supermotif peptides, Table IX
T3 construct: endogenous in cells; host or cells: GM3107

[5] = molecular target: HLA-A*0201 (Homo sapiens, UniProt P04439, D140Y/D185E/D98H/E176V/E277Q/G131W/G231S/I119V/I121R/I166T/I218V/L300P/L318F/N151K/N90K/P208A/P217A/Q86G/Q94H/R138H/R169H/T345S); assay: purified HLA class I binding assay, A*0201
[6] = Table XVII, HIV A11 motif peptides, binding value for A*1101, printed without unit
[7] = HIV POL-derived peptides, unit not given
[8] = HIV A02 super motif peptides, Table VIII, unit not given
[9] = Table XVII, HIV A11 motif peptides, binding value A*1101, unit not given
[10] = Table VIII, HIV A02 supermotif peptides, unit not given
[11] = HIV A03 supermotif peptides, Table IX, unit not given
[12] = binding value for purified HLA-A*0301, unit not given
[13] = HIV A02 Super Motif Peptides with Binding Information, Table VIII, unit not given

Sequence: NPDIVIYQYM
- B*0702 (binding information) [1]: 0.0005

Sequence: IPIIIYCAPA
- B*0702 binding (HIV B07 Super Motif Peptides with Binding Information) [1]: 0.0130

Sequence: KTKGIIRGSII
- A*1101 (binding information) [2, 6]: 0.0001

Sequence: EPFREYVIIRF
- B*0702 binding (HIV B07 Super Motif Peptides with Binding Information) [1]: 0.0001

Sequence: VPVWKEATTT
- B*0702 binding (HIV B07 Super Motif Peptides with Binding Information) [1]: 0.0022

Sequence: VAKEIVASC
- DR7 binding information [3]: 0.0015

Sequence: GPAATLEEMM
- B*0702 binding (HIV B07 Super Motif Peptides with Binding Information) [1]: 0.0020

Sequence: DVKQLTEAVQ
- A0301 (binding information, HIV A03 motif peptides) [4, 7]: 0.0048
- A*1101 (HIV A11 Motif Peptides with Binding Information) ([2]; unit not given): 0.0240

Sequence: IPMFSALSIEGA
- B*0702 binding (HIV B07 Super Motif Peptides with Binding Information) [1]: 0.0004

Sequence: IIPDKWTVQPI
- B*0702 (binding information) [1]: 0.0012

Sequence: SPTRKELQVW
- B*0702 (binding information) [1]: 0.0025

Sequence: TACQGVGGPG
- A0301 (binding information) ([4]; binding value unit not given): 0.0001
- A*1101 (binding information) ([2]; HIV A11 motif peptides, Table XVII, unit not given): 0.0001

Sequence: IIVASGYIEA
- A0301 (HIV A03 Motif Peptides with Binding Information) [4]: 0.0003

Sequence: EPFRDYVDRP
- B*0702 binding (HIV B07 Super Motif Peptides with Binding Information) [1]: 0.00012

Sequence: FLGKIWPSIIK
- A0301 (binding information) ([4]; binding value unit not given): 0.0200
- A*1101 binding ([2]; HIV A11 motif peptides (GAG), Table XVII, unit not given): 0.0013

Sequence: DPEIVMIISF
- B*0702 binding (HIV B07 Super Motif Peptides with Binding Information) [1]: 0.0001

Sequence: QPDKSESEIV
- B*0702 (binding information) [1]: 0.0002

Sequence: GPGIIKARV
- B*0702 binding (HIV B07 Super Motif Peptides with Binding Information) [1]: 0.0002

Sequence: ANRIETKLGK
- A*1101 (HIV A11 Motif Peptides with Binding Information) ([2]; unit not given): 0.0001

Sequence: LGIIQAQVDK
- A0301 (binding information, HIV A03 motif peptides) [4, 7]: 0.0007

Sequence: DTEYIINVWAT
- A*0201 (binding information) [5, 8]: 0.0001

Sequence: GPGIIKARVLA
- B*0702 binding (HIV B07 Super Motif Peptides with Binding Information) [1]: 0.0002

Sequence: VPIDPNPQEV
- B*0702 binding (HIV B07 Super Motif Peptides with Binding Information) [1]: 0.0008

Sequence: MVEQMIIEDII
- A*0201 (binding information) [5, 8]: 0.0001

Sequence: GIIQAQVDK
- A0301 (binding information, HIV A03 motif peptides) [4, 7]: 0.0009

Sequence: FVNIPPLVK
- A*1101 (binding information) [2, 9]: 0.0660

Sequence: WTYQIYQEPF
- A0301 (binding information, HIV A03 motif peptides) [4, 7]: 0.9200
- A*1101 (HIV A11 Motif Peptides with Binding Information) ([2]; unit not given): 0.0540

Sequence: ILQQLLFIIIF
- A0301 (binding information, HIV A03 motif peptides) ([4]; binding value for HLA-A*0301, unit not given): 0.0130

Sequence: APTKAKRRVV
- B*0702 binding (HIV B07 Super Motif Peptides with Binding Information) [1]: 0.1200

Sequence: EPPFLWMGYE
- B*0702 (binding information) [1]: 0.0001

Sequence: LTEDRWNKPQ
- A0301 (binding information) ([4]; unit not given): 0.0390
- A*1101 (binding information) [2, 6]: 0.0130

Sequence: LGIPIIPAGLK
- A*1101 (binding information) [2, 9]: 0.0150

Sequence: EVIINVWATIIA
- A*0201 (binding information) [5, 8]: 0.0001

Sequence: IILKTAVQMAV
- A*0201 (binding information) [5, 10]: 0.0005

Sequence: YVDRIFYKTLR
- A*0301 binding information ([4]; unit not given): 0.0003
- A*1101 (binding information) [2, 11]: 0.0006

Sequence: MGYELIIPDK
- A0301 (binding information, HIV A03 motif peptides) [4, 12]: 0.0640

Sequence: TPGIRYQYNV
- B*0702 (binding information) [1]: 0.0004

Sequence: QIYQIEPFKNLK
- A0301 (binding information, HIV A03 motif peptides) [4, 7]: 0.2800

Sequence: VAVIIVASGY
- A0301 (binding information, HIV A03 motif peptides) [4, 12]: 0.0004
- A*1101 (binding information) [2, 9]: 0.0001

Sequence: MVEQMIIEDI
- A*0201 (binding information) [5, 13]: 0.0002

Sequence: AANREIKLGK
- A*1101 (HIV A11 Motif Peptides with Binding Information) ([2]; unit not given): 0.0016

Sequence: LLQLIVWGIK
- A*0301 binding information ([4]; unit not given): 0.0055
- A*1101 (binding information) [2, 11]: 0.0110

Sequence: EILKEPVIIGV
- A*0201 (binding information) [5, 10]: 0.0007

Sequence: QVRDQAEIILK
- A0301 (HIV A03 Motif Peptides with Binding Information) [4]: 0.0089

Sequence: IPVGEIYKRW
- B*0702 binding (HIV B07 Super Motif Peptides with Binding Information) [1]: 0.0002

Sequence: TAVQMAVFIII
- A0301 (binding information, HIV A03 motif peptides) [4, 12]: 0.0004
- A*1101 (binding information) [2, 9]: 0.0110

Sequence: VIQDNSEIKV
- A*0201 binding ([5]; HIV A02 supermotif peptides, Table VIII, binding value with unit not given): 0.0013

Sequence: IVASCDKCQL
- A*0201 (binding information) [5, 10]: 0.0006

Sequence: NPQSQGVVES
- B*0702 (binding information) [1]: 0.0001

Sequence: WATIIACVPT
- A*0201 (binding information) [5, 13]: 0.0002

Sequence: LPQGWKGSPA
- B*0702 (binding information) [1]: 0.0120

Sequence: MLNTVGGIIQA
- A*0201 binding (HIV A02 Super Motif Peptides with Binding Information) ([5]; purified HLA-A*0201, unit not given): 0.0022
- A0301 (binding information) ([4]; binding value to purified HLA-A*0301, unit not given): 0.0005

Sequence: EPVIIGVYY
- B*0702 binding (HIV B07 Super Motif Peptides with Binding Information) [1]: 0.0001

Sequence: TTPDKKIIQK
- A0301 (HIV A03 Motif Peptides with Binding Information) [4]: 0.0002

Sequence: KIEELRQIIL
- A*0201 (binding information) [5, 8]: 0.0001

Sequence: ATWIPCWEFV
- A*0201 (binding information) [5, 10]: 0.0013
